Patent US20230355708A1 (DREXEL UNIVERSITY, published 2023)

Target: SARS-CoV-2 spike S2 subunit (SARS-CoV-2, UniProt P0DTC2 686-1213)
Assay: SPR, S2 anchored on low dextran chip, CVN injected at increasing concentrations

B1: Cyanovirin-N (CV-N) (other)
chain: LGKFSQTCYNSAIQGSVLTSTCERTNGGYNTSSIDLNSVIENVDGSLKWQPSNFIETCRNTQLAGSSELAAECKTRAQQFVSTKINLDDHIANIDGTLKYE
Question: Does B1 bind?
Answer: binds
